IntAct's records for PubMed 35512704

B1: Speckle-type POZ protein (Homo sapiens), O43791 (parent)
chain: MSRVPSPPPPAEMSSGPVAESWCYTQIKVVKFSYMWTINNFSFCREEMGEVIKSSTFSSGANDKLKWCLRVNPKGLDEESKDYLSLYLLLVSCPKSEVRAKFKFSILNAKGEETKAMESQRAYRFVQGKDWGFKKFIRRDFLLDEANGLLPDDKLTLFCEVSVVQDSVNISGQNTMNMVKVPECRLADELGGLWENSRFTDCCLCVAGQEFQAHKAILAARSPVFSAMFEHEMEESKKNRVEINDVEPEVFKEMMCFIYTGKAPNLDKMADDLLAAADKYALERLKVMCEDALCSNLSVENAAEILILADLHSADQLKTQAVDFINYHASDVLETSGWKSMVVSHPHLVAEAYRSLASAQCPFLGPPRKRLKQS
partner: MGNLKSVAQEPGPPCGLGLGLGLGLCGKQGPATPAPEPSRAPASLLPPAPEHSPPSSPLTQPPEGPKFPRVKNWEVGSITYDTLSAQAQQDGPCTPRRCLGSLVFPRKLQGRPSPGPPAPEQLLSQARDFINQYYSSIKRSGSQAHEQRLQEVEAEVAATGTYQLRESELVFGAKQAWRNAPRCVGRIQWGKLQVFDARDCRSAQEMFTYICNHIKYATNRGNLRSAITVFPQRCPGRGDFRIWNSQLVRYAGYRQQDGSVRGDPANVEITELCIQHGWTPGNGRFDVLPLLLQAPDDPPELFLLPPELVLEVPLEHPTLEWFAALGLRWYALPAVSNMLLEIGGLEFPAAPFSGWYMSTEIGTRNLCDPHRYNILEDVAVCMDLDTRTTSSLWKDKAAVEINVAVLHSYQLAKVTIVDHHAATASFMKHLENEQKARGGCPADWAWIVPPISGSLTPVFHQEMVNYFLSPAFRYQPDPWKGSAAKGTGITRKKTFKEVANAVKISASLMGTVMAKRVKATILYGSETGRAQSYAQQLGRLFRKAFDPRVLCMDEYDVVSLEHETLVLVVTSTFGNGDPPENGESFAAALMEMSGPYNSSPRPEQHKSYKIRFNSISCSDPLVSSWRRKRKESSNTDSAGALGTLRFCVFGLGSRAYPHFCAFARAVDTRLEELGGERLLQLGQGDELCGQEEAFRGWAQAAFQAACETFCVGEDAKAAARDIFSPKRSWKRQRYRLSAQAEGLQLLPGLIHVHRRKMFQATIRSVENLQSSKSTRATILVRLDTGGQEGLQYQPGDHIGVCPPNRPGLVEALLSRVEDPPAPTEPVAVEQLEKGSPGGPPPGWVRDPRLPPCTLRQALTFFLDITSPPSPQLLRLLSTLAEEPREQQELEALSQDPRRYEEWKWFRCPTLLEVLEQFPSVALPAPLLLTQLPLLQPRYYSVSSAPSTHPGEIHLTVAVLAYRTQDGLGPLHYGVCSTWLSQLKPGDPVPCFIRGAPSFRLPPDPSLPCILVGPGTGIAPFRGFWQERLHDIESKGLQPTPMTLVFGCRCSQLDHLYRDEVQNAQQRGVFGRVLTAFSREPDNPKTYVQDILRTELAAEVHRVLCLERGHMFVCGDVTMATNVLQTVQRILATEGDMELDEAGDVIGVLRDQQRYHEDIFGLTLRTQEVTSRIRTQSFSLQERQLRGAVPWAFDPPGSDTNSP
B2: Speckle-type POZ protein (Homo sapiens), O43791 (parent)
chain: B1 chain
partner: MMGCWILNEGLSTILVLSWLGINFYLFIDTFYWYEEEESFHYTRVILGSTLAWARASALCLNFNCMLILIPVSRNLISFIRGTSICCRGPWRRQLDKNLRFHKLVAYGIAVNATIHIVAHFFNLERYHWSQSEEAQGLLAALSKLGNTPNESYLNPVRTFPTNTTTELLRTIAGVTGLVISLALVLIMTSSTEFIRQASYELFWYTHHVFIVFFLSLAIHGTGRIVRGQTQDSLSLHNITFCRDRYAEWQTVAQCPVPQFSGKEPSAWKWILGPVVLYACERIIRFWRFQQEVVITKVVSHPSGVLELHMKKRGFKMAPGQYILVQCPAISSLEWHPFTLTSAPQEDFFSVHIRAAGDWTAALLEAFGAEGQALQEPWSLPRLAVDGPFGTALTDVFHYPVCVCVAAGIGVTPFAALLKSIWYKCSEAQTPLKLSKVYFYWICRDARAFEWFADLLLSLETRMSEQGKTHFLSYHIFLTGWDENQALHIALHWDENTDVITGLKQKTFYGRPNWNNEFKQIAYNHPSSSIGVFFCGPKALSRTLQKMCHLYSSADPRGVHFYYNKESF
B3: Speckle-type POZ protein (Homo sapiens), O43791 (parent)
chain: B1 chain
partner: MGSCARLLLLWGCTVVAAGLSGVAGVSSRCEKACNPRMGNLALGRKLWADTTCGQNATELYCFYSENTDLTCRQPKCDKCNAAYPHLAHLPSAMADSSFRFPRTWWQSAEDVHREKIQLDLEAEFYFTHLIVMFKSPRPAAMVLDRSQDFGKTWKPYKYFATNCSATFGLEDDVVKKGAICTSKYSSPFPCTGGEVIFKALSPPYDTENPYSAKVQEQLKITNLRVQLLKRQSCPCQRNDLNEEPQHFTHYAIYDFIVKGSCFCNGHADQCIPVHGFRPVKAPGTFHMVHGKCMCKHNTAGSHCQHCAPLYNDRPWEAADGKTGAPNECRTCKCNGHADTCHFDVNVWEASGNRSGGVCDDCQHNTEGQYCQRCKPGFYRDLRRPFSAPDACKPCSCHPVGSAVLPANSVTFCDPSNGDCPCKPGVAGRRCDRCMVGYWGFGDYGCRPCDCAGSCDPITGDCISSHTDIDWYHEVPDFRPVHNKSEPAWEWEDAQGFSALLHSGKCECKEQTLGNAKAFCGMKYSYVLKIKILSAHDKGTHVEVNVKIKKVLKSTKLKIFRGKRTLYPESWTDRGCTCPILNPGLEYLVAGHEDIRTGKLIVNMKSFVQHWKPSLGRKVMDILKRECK
B4: Speckle-type POZ protein (Homo sapiens), O43791 (parent)
chain: B1 chain
partner: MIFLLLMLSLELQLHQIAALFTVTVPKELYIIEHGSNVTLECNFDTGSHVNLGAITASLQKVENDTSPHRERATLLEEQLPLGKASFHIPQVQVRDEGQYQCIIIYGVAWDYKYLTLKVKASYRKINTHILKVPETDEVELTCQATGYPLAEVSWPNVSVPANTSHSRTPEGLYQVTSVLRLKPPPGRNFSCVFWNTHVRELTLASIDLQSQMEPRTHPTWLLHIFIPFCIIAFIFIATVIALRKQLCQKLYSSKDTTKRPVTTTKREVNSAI
B5: Speckle-type POZ protein (Homo sapiens), O43791 (parent)
chain: B1 chain
partner: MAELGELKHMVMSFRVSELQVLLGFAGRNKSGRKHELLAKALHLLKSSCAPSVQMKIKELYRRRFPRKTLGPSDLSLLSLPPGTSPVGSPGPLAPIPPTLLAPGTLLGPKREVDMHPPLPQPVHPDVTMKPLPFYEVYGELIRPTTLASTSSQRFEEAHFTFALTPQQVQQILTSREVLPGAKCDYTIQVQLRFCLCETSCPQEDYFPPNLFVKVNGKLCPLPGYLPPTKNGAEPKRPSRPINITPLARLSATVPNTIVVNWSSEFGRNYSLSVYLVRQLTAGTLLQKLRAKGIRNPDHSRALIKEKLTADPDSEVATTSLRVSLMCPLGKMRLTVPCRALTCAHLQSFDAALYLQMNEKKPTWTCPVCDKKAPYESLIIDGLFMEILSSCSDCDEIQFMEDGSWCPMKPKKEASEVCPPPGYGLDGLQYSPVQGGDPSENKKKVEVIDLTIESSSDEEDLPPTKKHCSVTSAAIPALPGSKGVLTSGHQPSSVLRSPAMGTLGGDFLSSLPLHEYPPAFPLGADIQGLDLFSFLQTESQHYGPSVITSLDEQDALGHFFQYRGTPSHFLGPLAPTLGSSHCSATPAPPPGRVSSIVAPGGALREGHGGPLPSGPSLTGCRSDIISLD
B6: Speckle-type POZ protein (Homo sapiens), O43791 (parent)
chain: B1 chain
partner: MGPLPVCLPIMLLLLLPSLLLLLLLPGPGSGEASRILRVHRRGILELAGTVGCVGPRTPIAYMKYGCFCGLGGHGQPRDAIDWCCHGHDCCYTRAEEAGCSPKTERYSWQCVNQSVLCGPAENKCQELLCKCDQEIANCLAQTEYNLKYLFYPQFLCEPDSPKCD
B7: Speckle-type POZ protein (Homo sapiens), O43791 (parent)
chain: B1 chain
partner: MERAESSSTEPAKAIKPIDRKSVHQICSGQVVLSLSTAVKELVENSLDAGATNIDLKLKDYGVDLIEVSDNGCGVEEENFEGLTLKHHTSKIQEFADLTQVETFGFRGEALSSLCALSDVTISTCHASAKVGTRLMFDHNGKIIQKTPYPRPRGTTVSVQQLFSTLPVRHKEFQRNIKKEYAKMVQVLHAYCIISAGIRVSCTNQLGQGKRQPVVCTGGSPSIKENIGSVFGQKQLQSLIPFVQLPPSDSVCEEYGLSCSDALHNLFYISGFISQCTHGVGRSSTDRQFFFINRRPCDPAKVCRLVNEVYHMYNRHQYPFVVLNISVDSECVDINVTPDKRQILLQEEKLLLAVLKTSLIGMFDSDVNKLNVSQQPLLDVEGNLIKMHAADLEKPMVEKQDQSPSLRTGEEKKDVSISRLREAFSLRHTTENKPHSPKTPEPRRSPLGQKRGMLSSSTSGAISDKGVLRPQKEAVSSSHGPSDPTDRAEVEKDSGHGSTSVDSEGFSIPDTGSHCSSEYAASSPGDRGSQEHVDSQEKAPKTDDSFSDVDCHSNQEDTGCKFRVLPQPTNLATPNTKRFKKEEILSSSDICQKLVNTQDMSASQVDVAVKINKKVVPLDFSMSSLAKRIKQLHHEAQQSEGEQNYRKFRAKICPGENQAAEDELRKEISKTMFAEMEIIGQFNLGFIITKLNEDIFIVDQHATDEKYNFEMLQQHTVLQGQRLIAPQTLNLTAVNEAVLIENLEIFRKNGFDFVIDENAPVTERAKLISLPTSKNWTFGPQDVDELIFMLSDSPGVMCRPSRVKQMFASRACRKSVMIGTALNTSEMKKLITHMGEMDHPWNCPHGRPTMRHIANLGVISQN

Variants of: B1
Conditions: with nos3_human NOS3, P29474

| Variant | effect of a mutation on the interaction |
| --- | --- |
| Y87C | with no effect |

Variants of: B1
Conditions: with nos3_human NOS3, P29474
Remark: another data set of the same source

| Variant | effect of a mutation on the interaction |
| --- | --- |
| F133V | with no effect |

Variants of: B2
Conditions: with nox3_human NOX3, Q9HBY0

| Variant | effect of a mutation on the interaction |
| --- | --- |
| F102C | with no effect |

Variants of: B2
Conditions: with nox3_human NOX3, Q9HBY0
Remark: another data set of the same source

| Variant | effect of a mutation on the interaction |
| --- | --- |
| F133L | with no effect |

Variants of: B2
Conditions: with nox3_human NOX3, Q9HBY0
Remark: another data set of the same source

| Variant | effect of a mutation on the interaction |
| --- | --- |
| Y87C | with no effect |

Variants of: B2
Conditions: with nox3_human NOX3, Q9HBY0
Remark: another data set of the same source

| Variant | effect of a mutation on the interaction |
| --- | --- |
| F133V | with no effect |

Variants of: B3
Conditions: with net4_human NTN4, Q9HB63

| Variant | effect of a mutation on the interaction |
| --- | --- |
| F102C | with no effect |

Variants of: B3
Conditions: with net4_human NTN4, Q9HB63
Remark: another data set of the same source

| Variant | effect of a mutation on the interaction |
| --- | --- |
| F133L | with no effect |

Variants of: B3
Conditions: with net4_human NTN4, Q9HB63
Remark: another data set of the same source

| Variant | effect of a mutation on the interaction |
| --- | --- |
| Y87C | with no effect |

Variants of: B3
Conditions: with net4_human NTN4, Q9HB63
Remark: another data set of the same source

| Variant | effect of a mutation on the interaction |
| --- | --- |
| F133V | with no effect |

Variants of: B4
Conditions: with pd1l2_human PDCD1LG2, Q9BQ51

| Variant | effect of a mutation on the interaction |
| --- | --- |
| F102C | with no effect |

Variants of: B4
Conditions: with pd1l2_human PDCD1LG2, Q9BQ51
Remark: another data set of the same source

| Variant | effect of a mutation on the interaction |
| --- | --- |
| F133L | with no effect |

Variants of: B4
Conditions: with pd1l2_human PDCD1LG2, Q9BQ51
Remark: another data set of the same source

| Variant | effect of a mutation on the interaction |
| --- | --- |
| Y87C | with no effect |

Variants of: B4
Conditions: with pd1l2_human PDCD1LG2, Q9BQ51
Remark: another data set of the same source

| Variant | effect of a mutation on the interaction |
| --- | --- |
| F133V | with no effect |

Variants of: B5
Conditions: with pias3_human PIAS3, Q9Y6X2

| Variant | effect of a mutation on the interaction |
| --- | --- |
| F102C | with no effect |

Variants of: B5
Conditions: with pias3_human PIAS3, Q9Y6X2
Remark: another data set of the same source

| Variant | effect of a mutation on the interaction |
| --- | --- |
| F133L | with no effect |

Variants of: B5
Conditions: with pias3_human PIAS3, Q9Y6X2
Remark: another data set of the same source

| Variant | effect of a mutation on the interaction |
| --- | --- |
| Y87C | with no effect |

Variants of: B5
Conditions: with pias3_human PIAS3, Q9Y6X2
Remark: another data set of the same source

| Variant | effect of a mutation on the interaction |
| --- | --- |
| F133V | with no effect |

Variants of: B6
Conditions: with pa2gx_human PLA2G10, O15496

| Variant | effect of a mutation on the interaction |
| --- | --- |
| F102C | with no effect |

Variants of: B6
Conditions: with pa2gx_human PLA2G10, O15496
Remark: another data set of the same source

| Variant | effect of a mutation on the interaction |
| --- | --- |
| F133L | with no effect |

Variants of: B6
Conditions: with pa2gx_human PLA2G10, O15496
Remark: another data set of the same source

| Variant | effect of a mutation on the interaction |
| --- | --- |
| Y87C | with no effect |

Variants of: B6
Conditions: with pa2gx_human PLA2G10, O15496
Remark: another data set of the same source

| Variant | effect of a mutation on the interaction |
| --- | --- |
| F133V | with no effect |

Variants of: B7
Conditions: with pms2_human PMS2, P54278

| Variant | effect of a mutation on the interaction |
| --- | --- |
| F102C | with no effect |
